Measurements as given in patent US20130123192A1 (RESEARCH FOUNDATION OF STATE UNIVERSITY OF NEW YORK, published 2013).
Where no end group is shown, it is not given here.

Key:
[1] = target: T1, Membrane type 1 matrix metalloproteinase (MT1-MMP) (Homo sapiens, UniProt P50281 112-582); test: cell-based or functional assay
[2] = target: T1, Membrane type 1 matrix …; test: flow cytometry on cells expressing MT1-MMP

| IC50, 3D invasion assay (human MDA-MB-231 breast cancer cell invasion) [1] | binding result [2] | Binder |
| --- | --- | --- |
| 1.5 µM |  | GYPMP [IS4-5 peptide (GYPMP)] |
| 1.5 µM |  | VMDGYPMP [IS4-8 peptide (VMDGYPMP)] |
|  | binds | GYPMP (also: biotinylated (site not given here), also called biotinylated IS4-5 peptides) [biotinylated IS4-5 peptide] |
| 10 µM |  | GYPKSALR [IVS4-8 peptide (GYPKSALR)] |
